Experimental data from PMC12171399.
One block for each substance: values may come before it.

Experiments:
[1] = biological target: secreted form of VEGF-A-HisTag expressed in Expi293 cells (mouse) (UniProt Q00731); assay: SDS-PAGE; VEGF-A-HisTag from Expi293 culture media, purified on a heparin affinity column
[2] = biological target: VEGF-A-HisTag refolded from inclusion bodies of BL21(DE3) (mouse); assay: SDS-PAGE under reducing and non-reducing conditions; purified protein; disulfide-linked homodimer told from monomer by comparing migration under reducing or non-reducing conditions; 5%-20% gradient gel; refolded samples after cation-exchange chromatography
[3] = biological target: non-tagged mature mouse VEGF-A (188 amino acids form), refolded from TAPS-VEGF-A (mouse); assay: as above

stoichiometry N [1]: 2
Substance: secreted form of VEGF-A-HisTag expressed in Expi293 cells (from UniProt Q00731 1-392) (ligand)

stoichiometry N [2]: 2
Substance: VEGF-A-HisTag refolded from inclusion bodies of BL21(DE3) (ligand)

stoichiometry N [3]: 2
Substance: non-tagged mature mouse VEGF-A (188 amino acids form), refolded from TAPS-VEGF-A (ligand)
